# Where a chain is given by its changes, count along the chain named. Names may count otherwise.
# T1: Biotin-BCMA-Fc (human, UniProt Q02223 1-54, labelled with NHS-biotin, sites not stated)
# T1 construct: also called Biotin-BCMA-Fc protein; labeled BCMA-Fc recombinant protein; not shown: Fc part
# T1 sequence (looked up): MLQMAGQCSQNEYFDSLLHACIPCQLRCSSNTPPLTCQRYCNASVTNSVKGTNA
# T2: BCMA-Fc recombinant protein (human, UniProt Q02223 1-54)
# T2 construct: also called human BCMA protein; BCMA protein; not shown: Fc part
# T2 sequence (looked up): T1 sequence (looked up)
# B1: single-domain antibody D1 (Fc fusion)
# chain: QVQLVESGGGLVQAGGSLRLSCVASGRTSTTSVMGWFRQAPGKERRFVAAITRTDDRQNDGITYYGESVKGRFTISRDNDKNTVYLQMNSLKPEDTAVYYCAAHTSLVFTPDPRYWGQGTPVTVPS
# notes: not shown: human IgG1 Fc, ligated in series to the VHH (vector Lenti-hIgG1-Fc2)
# B2: C2 (Fc fusion)
# VHH-Fc fusion chain: QVQLVESGGGLVQAGGSLRLSCVASGLTFSNYAMGWFRQGPGKDRDFVAAITRSDERQNDGVTYYRVSVKGRFTISRDNANDTVYLQMNSLKPEDTAIYYCAADPSLVFSPTLRYWGQGTLVTVSS
# notes: also called single-domain antibody C2
# B3: D10 (Fc fusion)
# VHH-Fc fusion chain: B2 VHH-Fc fusion chain with A14P, V23A, L27F, T28S, F29L, S30N, A33V, M34I, G40A, L113P
# notes: also called single-domain antibody D10
# B4: C6 (Fc fusion)
# VHH-Fc fusion chain: QVQLVESGGGLVETGSSLRLSCKSSGHSFSDYSLAWFRQAPGKEREFVAAITWSDVPRDDAVTYYRVDVKGRFTISRDNAKNTVYLQMNSLKPEDTAVYYCAVDASLVMTLTPRYWGQGTQVTVSS
# notes: also called single-domain antibody C6
# B5: single-domain antibody 48-11 (Fc fusion)
# chain: QVQLVESGGGLVQAGGSLRLSCAASGHTPSNYAMGWFRQTPGKEREFVAAITWSAVTRDDAIPYYRTSVKGRFTISRDNAKNTVYLQMNSLKPEDTAVYYCAVDASLVMTPTPRYWGQGTQVTVSS
# notes: Supernatant was used in flow cytometry, Protein A purified material in Biacore; not shown: human IgG1 Fc, ligated in series to the VHH (vector Lenti-hIgG1-Fc2)
# B6: humanized single-domain antibody huD1 (Fc fusion)
# chain: B1 chain with A14P, V23A, G66A, E67D, D80S, V84L, K92R, P93A, P121L, P125S
# notes: Humanized on DP-47 frameworks, original FR2 kept; not shown: fusion partner
# B7: humanized single-domain antibody huD1FGLF (Fc fusion)
# chain: QVQLVESGGGLVQPGGSLRLSCAASGRTSTTSVMGWFRQAPGKGLEFVAAITRTDDRQNDGITYYADSVKGRFTISRDNSKNTLYLQMNSLRAEDTAVYYCAAHTSLVFTPDPRYWGQGTLVTVSS
# notes: FR1, FR3 and FR4 replaced and FR2 mutated; Fusion partner inferred; also called huDIFGLF; not shown: fusion partner
# B8: humanized single-domain antibody hu4811 (Fc fusion)
# chain: B5 chain with A14P, R66A, T67D, A80S, V84L, K92R, P93A, Q121L
# notes: Humanized on DP-47 frameworks, original FR2 kept; Fusion partner inferred; not shown: fusion partner
# B9: humanized single-domain antibody hu4811FGLF (Fc fusion)
# chain: QVQLVESGGGLVQPGGSLRLSCAASGHTPSNYAMGWFRQAPGKGLEFVAAITWSAVTRDDAIPYYADSVKGRFTISRDNSKNTLYLQMNSLRAEDTAVYYCAVDASLVMTPTPRYWGQGTLVTVSS
# notes: FR1, FR3 and FR4 replaced and T45A, E49G, R50L in FR2; Fusion partner inferred; not shown: fusion partner
# Molecular target: T1, Biotin-BCMA-Fc
# Test: flow cytometry of the induced yeast single clone displaying the VHH, Biotin-BCMA-Fc and PE-streptavidin
# Protocol: After two rounds of magnetic sorting were repeated, a part of the yeast was cultured and subjected to induced expression and flow cytometry assays. Another part was directly applied onto a PAD plate, and single clones were then picked and cultured, and were incubated simultaneously with Biotin-Fc and Biotin-BCMA-Fc 24 h after induced expression, with PE-Streptavidin as a secondary antibody; after incubation, flow cytometry assays were performed, and the results are shown in FIG. 3, where 14 clones are shown to bind to Biotin-BCMA-Fc.
binding result,percent of cells in gate R3,Binder
binds,–,B1
–,95.3%,B2
–,99.8%,B3
–,93.3%,B4
–,98.4%,B5

# Molecular target: T2, BCMA-Fc recombinant protein
# Test: SPR, Biacore 8K, CM5 chip; antibody captured by anti-human IgG (Fc), human BCMA protein as analyte (paragraph 147 describes the reverse format)
# Protocol: The mouse anti-human IgG (Fc) antibody was diluted with the immobilization reagent (sodium acetate, pH 5.0): 950 μL of the immobilization reagent was added to 50 μL of the mouse anti-human IgG (Fc) antibody. The dilution was used for immobilization in eight channels. First, the surface of the CM5 chip was activated for 360 s with EDC and NHS at a flow rate of 10 μL/min. Then, the mouse anti-human IgG (Fc) antibody was injected into the channels (channels 1-8, Fc1,2) at a flow rate of 10 μL/min for about 360 s, with the level of immobilization at about 7000 to 14,000 RU. Finally, the chip was blocked with ethanolamine at 10 μL/min for 420 s.
# Human BCMA protein was diluted 2-fold with the running reagent. The diluted human BCMA protein was injected into the experimental channels and the reference channels in sequence at a flow rate of 30 μL/min, and corresponding periods of association and dissociation were allowed. The association and dissociation steps were all performed in the running reagent. After each concentration analysis, the chip needed to be regenerated with magnesium chloride at a flow rate of 20 μL/min for 30 s to wash away the ligand and undissociated analyte. For the next concentration analysis, the experimental channels needed to recapture the same amount of ligand.
# A KD value was calculated for each sample using Biacore 8K analysis software Biacore Insight Evaluation Software. The reference channels (Fc1) were used for background subtraction.
Kd,koff,kon,Binder
1.9 nM,0.0141 s⁻¹,7.41e+06 M⁻¹ s⁻¹,B6
9.25 nM,0.0579 s⁻¹,6.26e+06 M⁻¹ s⁻¹,B7
0.243 nM,0.00212 s⁻¹,8.73e+06 M⁻¹ s⁻¹,B1
9.71 nM,0.0698 s⁻¹,7.19e+06 M⁻¹ s⁻¹,B8
10.2 nM,0.126 s⁻¹,1.24e+07 M⁻¹ s⁻¹,B9
0.0379 nM,0.0013 s⁻¹,3.42e+07 M⁻¹ s⁻¹,B5
